Measured values published in the nanobody polyreactivity screen of Harvey et al. (2022).

Assay: yeast display, Sf9 membrane polyspecificity reagent, FACS + sequencing; frameworks hold sequencing errors
Method in brief: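 Using colony PCR, genes from sorted yeast display clones were amplified, then sequenced on MiSeq at 2 × 250 and filtered by CDR length. The clones had been stained with 10% biotinylated, detergent-solubilized Sf9 membrane reagent for 1 hour at 4 °C and sorted by FACS into low and high (top ~1%) gates on anti-HA and streptavidin fluorescence. Polyreactivity labels come from the gate of origin.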

Sequence | polyreactivity (PSR sort gate)
QVQLQESGGGMVQAGGSLRLSCAASGYISWADYMVWYRQAPGKERELVAGIGYGSTTYYADSVKGRFTISRDNAKNTAYLQMNSLKPEDTAVYYCAVGWYRDTAYKYWGQGTQVTVSS | low polyreactivity
QVQHVESGGGLVQAGGSLRLSCAASGFIFASYAMGWSRQPPGKERELVAAISWRGGSTYYADSVKGRFTISRDNAKNTLYLQMNSLKPVDTAVYYCNAYVYVCTGRGYDTLDYWGQGTQVTVSS | low polyreactivity
QVQLVESGGGLVQAGGSLRLSSAASGSIFRFYTMGWYRQAPGKERELVAAISASGGNTYYADSVKGRFTISRDNAKNTVYLQMNSLKPEDTAVYYCARVKFTKYDYWGQGTQVTVSS | high polyreactivity
QVQIVESGGGLVQAGGSLRLSCAASGFTFWRNAMVWYRQAPGKERELVAAINWSGGSTYYADSVKGRFTISRDNAKNTVYLQMNSLKPEDTAVYYCAADLSSRGISQDDYWGQGTQVTVSS | high polyreactivity
QVQLVESGGGLVQAGGSLRLSCAASGSTFYRYAMGWYRQAPGKERELVATITNSGGSTYYADSVKGRFTISRDNAKNTVYLQMNSLKPEDTAVYYCARVRSRNTGYYYWGQGTQVTVSS | high polyreactivity
QDQLVESGGGLDQAGGSLRLSCAASGRTFRKYAMGWYSQAPGKERELVAAITTSGARTYYADSVKGRFTISRDNAKNTVYLQMNILKPDDTAVYYCNAVSPYDGIEFDYWGLGTQVTVSS | high polyreactivity
QVQLVESGGGLVQAGGSLRLSCAASGSTFFGYAMGWYREAPGKERELVAAISSRGGSTYYADSVKGRFTISRDNAKKTVYLQMNSLKPEDTAVYYCNKVYHYPYYYWGQGTQVTVSS | high polyreactivity
QVQLVESGGGLVQAGGSLRLSCAASGRIIYTNAMGWYRQAPGKERELVAAINRSGGITYYADSVKGRFTISRDNAKNTVYVQMNSLKPEDTAVYYCAKDSSWASYNHDYWGQGTQVTVSS | low polyreactivity
QVQLVESGGGLVHAGGSLRLSCAASGFIFSYNARGWYRQAPGKERELVASISRADSTNYADSVKGRFTISRDNAKNTVYLQMNSLKPEDTAVYYCAAAYWPVVWFYYWGQGTQVTVSS | low polyreactivity
QVQLVESGGGLVQAGGSLRLSCAASGRIFWHNAMGWYRQAPGTERELVAAITGGGSTYYADSVKGRFTISRDNAKNTVYLQMNSLKPEDTAVYYCATLGSLRYYWPGYDYWGQGTQVTVSS | low polyreactivity
QVQLVESGGGLVQAGGSLRLSCAASGITFSRNVMGWYRQAPGKERELVAAISRSGGRTYYADSVKGRFTISRDNAKNTVYLQMNSLKPEDTAVYDCNRDIGGTSVLDDYWGQGTQVTVSS | low polyreactivity
QVQLVESGGGLVQAGGSLRLSCAASGGTFYYNAMGWYRQAPGKERELVAAITSGDRTYYADSVKGRFTISRDNAKYTVYLQMNSLKPEDTAVYYCAARWFRSNKYWGQGTQVTVSS | high polyreactivity
QVQLVESGGGLVQAGGSLRLICAASGRIFQIYAMGWYRQAPGKEREVVAAISSGGTTYYADSVKGRFTISRDNAKNTVYLQMNSLKPEDTAVYYCAAVAWDLYSDGQEYNYWGQGPQVTVSS | high polyreactivity
QVQLVESGGGLVQAGGSLRLSCAASGSTFTLNAMGWSRQAPGKERELVADITSGGGGTYYADSVKGRFTISRDNAKNTVYLQMNSLKPEDTAVYYCAKTYRPSYNPYISFGFDYWGQGTQVTVSS | low polyreactivity
QVQLVESGGGLVQAGGSLRLSCAASGRIIVHYAMGWYRQAPGKERELVAAISWSGGSTYYADSVKGRFTISRDIGNNTVYLQMNSLKPEDTAVYYCNALDPLYFRYDYWGQGTQVTVSS | low polyreactivity
QVQLVESGGGLVQAGGSLRLSCAASGFTFGGYAMGWYRQAPGKERELVAAITWSGGTTYYADSVKGRFTISRDNAKNTVYLQMNSLKPEDTAVYYCAAESTLPIIDRDDYWGQGSQVTVSS | low polyreactivity
QVQLVESGGGLVQAGGSLRLSCAASGSTFKQYAKGWYRQAPGKERELVAAISSVGRTYYADSVKGRFTISRDNAKNTVYLQINSLKPEDTAVYYCNRRWYTHWGQGTQVTVSS | high polyreactivity
QVQLVESGGGLVQAGGSLRLSCAASGSIFFYYVMGWYRQAPGKERELVAVISSGGGSTYYADSVKGRFTISRDNAKNTVYLQMNSLKPEDTAVYYCAAGTYYKFYYWGQGTQVTVSS | high polyreactivity
QVQLVESGGGLVQAGGSLRLSCAASGSTFKYNAMGWYRQAPGKERELVASISRSGGSTYYADSVKGRFTISRDNAKNTVYLQMNSLKPEDTAVYYCAVRVSSHPVYHYNYWGQGTQVTVSS | high polyreactivity
QVQLVESGGGLVQAGGSLRLSCAASGSTFEAYAMGWYRQAPGKERELVATITGSGGRTYADSVKGRFTITRDNAKNTVYLQMNSLKPEDTAVYYCAADCLKVAEYDYWGQGTQVTVSS | low polyreactivity
QVQLVESGGGLVQAGGSLRLSCAASGFTFWRNAMGWYRQAPGKERELVAAISWRGGSTYYADSVKGRFTISRDNAKNTVYLQMNSLKPEDTAVYYCNALHWQSKELDYYWGQGTQVTVSS | high polyreactivity
QVQIVESGGGLVQAGGSLRLSCAASGRIIRINAMGWSRQAPGKERELVAAITRGGTTYADSVKGRFTISRDNAKNTVYLQMNSLKPEDTAVYYCNARTGRSPTGFRYWGQGTQVTVSS | high polyreactivity

Sequence | polyreactivity (PSR sort gate)
QVQLVESGGGLVQAGGSLRLSCAASGRIIYVYAMGWYRQAPGKERELVAAISDSGGSTYYADSVKGRFTISRDNAKNTVYLQMNSLKPEDTAVYYCAAEGYYSDYWGQGTQVTVSS | high polyreactivity
QVQLVESGGGLVQAGGSLRLSCAASGSIFYQNAMGWYRQAPGKERELVAAITWRSGSTYYADSVKGRFTISRDNAKNTVDLQMNSLKPEDTAVYYCAADLLISPEFYYWGQGTQVTVSS | high polyreactivity
QVQLVESGGGLVQAGGSLRLSCAASGSTFKGNAMGWYRQAPGKERELVAAINRSGTSTYYADSVKGRFTISRDNAKNTVYLQMNSLKPEDTAVYYCAKKYFGHRFDYWGQGTQVTVSS | high polyreactivity
QVQLVESGGGLVQAGGSLRLTCAASGYTFYYAMGWYRQAPGKERELVAAITRGGSTYYADSVKGRFTISRDNAKNTVYLQMNSLKPEDTAVYYCATEYHAHYASRALYGYDHWGQGTQVTVSS | low polyreactivity
QVQLVESGGGLVQAGGSLRLSCAASGSMFTGYDMGWYRQAPGKERELVAAITASGSGTYYADSVKGRFTISRDNAKNTVYLQMNSLKPEDTAVYYGNAPYLFYRGDSDHYYYNEGGYWGQGTQVTVSS | high polyreactivity
QVHLVESGGGLVQAGGSLRLSCAATGSTFPNAMGWYRQAPGKERELVAAITYGGGSTYYADSVKGRFTISRDNAKNTVYLQMNSLIPEDTAVYYCNAPSRLSTIFYSGYDYWGQGTQVTVSS | low polyreactivity
QVQLVESGGGLVQAGGSLRLSCAASGLIFGSNAMGWYRQAPGKERELVAGISGSGEHYVLRRSVKGRVTISRDNAKNTVYVPMNSLKPEDTAVYYCATYSQSSKGPAGYDYWGQGTHVTVSS | high polyreactivity
QVQLVESGGGLVQAGGSLRLSCAASGITFYVYALRWYRQAPGKERELVASISWIGGRTYYADSVKGRFTISRDNAKNTVYVQMNSLKPEDTAVYYCAARAYSYWSGLDYWGQGTQVTVSS | high polyreactivity
QVQLVESGGGLVQAGGSLRLSCAASGRIFDTNVRGWSRQAPGKERELVAAISSGGSTYYADSVKGRFTISRDNAKTTVYLQMNSLKPEDTAVYYCAAESRTSRARRYYWGQGTQVTVSS | high polyreactivity
QVQLVESGGGLVQAGGSHRLSCAASGRIFNWYAMGWYRHAPGKDRALVARISSGDITSYADSVKGRFSISRDNAKNTVYLQMNILKPEDTAVYYCAARQWFLYDYWGQGTQVTVSS | low polyreactivity
QVQLVESGGGLVQAGGSLRLSCAASGNTFYKYAMGWYRQAPGKERELVADISWSGGSTYYADSVKGRFTISRDNAKNTVYLQMNSLKPEDTAVYYCNADTPVWDGHAYPVDYWGQGTQVTVSS | low polyreactivity
QVQLVESGGVIFQAGGILRLICAASGRIFARNAMGWYRQAPGKERELVAAISRSGGPTYYADSVKGRFTISRDNAKNSVYLQMNSLKTEDTGVYYCAADHYPWWAWEFDYWGQGTQVTVSS | low polyreactivity
QVQLVESGGGLVHAGGILRLSSPASGSTIRYYAMGWYRQAPGKESQLVAVISTSGNTYYADSVKGRFTISRDNAKNTVYLQMNSLKPEDTAVYYCAARGVGGQISQEYDYWGQGTQVTVSS | low polyreactivity
QVQLVESGGGLVQAGGSLGLSCAASGRSFRYYAMGWYIQAPGKERELVAAINWSGGSTYYADSVKGRFTISRDNAKNTVYLHMNRLKPEDTAVYYCNTRWYVGDDWGQGTQVTVSS | high polyreactivity
LVKLQESGGGLVQAGGSLRLSCAASGTISPGGYMGRYRQAPGKEGELVASINVGGSTNYADSVKGRFTISRDNAKNTVYLQMNSLIPEDNAVYYCAVWGRNRLQLSYWGQGTQVTVSS | low polyreactivity
QVQLVESGGGLVQAGGSLRLSCAASGSIFHFYAMGWYRQAPGKERELVAAITSGTSTYYADSVKGRFTISRDNAKNTVFLQMNSLKPEDTAVYYCAAEASHYYYNAYPSYGGSDYWGQGTQVTVSS | low polyreactivity
QVQLVESGGGLVQAGGSLRLSCAASGRIFVINTMGWYRQAPGKERELVAAISRGGSTNYADSVKGRFTISRDNAKNTVYLQMNSLKPEDTAVYDCAATGYILFAGCGYDYWGEGTQVTVSS | low polyreactivity
QVQLVESGGGLVQAGGSLRLSCAASGFIFLGNAMGWYRQAPGKERELVASISRGGSTNYADSVKGRFTISRDNAKNTVYLQMNSLKPEDTAVYYCAADLSDKFGYWGQGTQVTVSS | low polyreactivity
QVQLVESGGGLVQAGGSLRLSCAAYYAMGWYRHAPGKERELVAAIDDGTSTNYADSVKGRFTISRDNAKNTVYLQMNSLKPEDTAVYYCNKLSEVTYYGSKFDYWGQGTQVTVSS | low polyreactivity
QVQLVESGGGLVQAGGSLRLSCAASGSIIPGYTMGWYRQAPGKERELVAAITSSGGSTYYADSVKGRFTISRDNAKNTVYLQMNSLKPEDTAVYYCNAPFWGYRTSFSYPVVQRFDYWGQGTQVPVSS | low polyreactivity
HVQLVESGGGLVQAGGSLRLSCGASGRIFRGNVMGWYRQAPGTERELVAAISWSGGSSYADAVKGRFSISRDNAKNTVYLQMNRLKPDDTAVYYWNADSLDGPKFDYWGQGTQVTVSS | low polyreactivity
